Experimental data reported in patent publication US20210253725A1 (BIONTECH, published 2021).

T1: CD134 expressed on the cell surface of HT1080_OX40 cells (human, UniProt P43489 29-277)
T1 construct: whole, on cells; species not restated for the HT1080 transfectant
T1 sequence (looked up): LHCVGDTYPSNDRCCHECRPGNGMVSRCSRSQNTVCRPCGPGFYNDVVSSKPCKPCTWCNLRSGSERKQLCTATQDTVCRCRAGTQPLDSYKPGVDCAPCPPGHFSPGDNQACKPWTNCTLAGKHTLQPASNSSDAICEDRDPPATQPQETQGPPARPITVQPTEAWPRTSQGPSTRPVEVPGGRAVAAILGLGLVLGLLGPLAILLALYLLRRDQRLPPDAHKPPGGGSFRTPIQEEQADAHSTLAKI

T2: CD134 protein (His-tagged, Sino Biological Inc. 10481-H08H) (human, UniProt P43489 29-216)
T2 construct: bought protein coated on ELISA plates; also called OX40; TNFRSF4; not shown: His tag
T2 sequence (looked up): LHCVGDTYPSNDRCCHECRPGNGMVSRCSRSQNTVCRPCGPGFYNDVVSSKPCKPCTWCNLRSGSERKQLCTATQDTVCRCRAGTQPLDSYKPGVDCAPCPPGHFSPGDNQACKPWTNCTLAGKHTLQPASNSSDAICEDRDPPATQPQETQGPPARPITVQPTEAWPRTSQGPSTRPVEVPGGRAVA


What was measured:
[1] = target: T1, CD134 expressed on the cell surface of …; experiment: HT1080_OX40 cells, imaging
[2] = target: T2, CD134 protein (His-tagged, Sino …); experiment: ELISA, coated His-tagged CD134
[3] = target: T1, CD134 expressed on the cell surface of …; experiment: cell-based or functional assay
Also: test concentration or dose not given here.

Binder	Cellular binding assay [RFU] [1]	ELISA [abs. corr.] [2]	Functional assay Cross-linked by F(ab′)2 fragment IL-8 [3]	Functional assay IL-8 [3]
P018.S.11.A.E03 (antibody, V domains shown, V regions on human Ig constant parts; also called AB134_34) VH: QSVEESGGRLVTPGTPLTLTCTVSGFSLSSYAVSWVRQAPWKGLEWIGIISSGGNTYYASWATGRFTISKTSTTVDLKITSPTTEDTATYFCARGIHSYDDYLGYKLWGPGTLVTVSS VL: AIEMTQSPPSLSASVGETVRIRCLASEFLFNAVSWYQQKPEKPPTLLISGASNLESGVPPRFSGSGSGTDYTLTIGGVQAEDVAAYYCLGGYKRADLTFGPGTKVEIK	318 RFU	0.276 abs. corr.	1.79 abs. corr.	0.481 abs. corr.
P018.S.11.A.B05 (antibody, V domains shown, V regions on human Ig constant parts; also called AB134_26) VH: QSVEESGGRLVTPGTPLTLTCTVSGFSLSTYNVAWVRQAPGKGLQYIGIMAFDGNTYYASWATGRFTISRTSTTVNLKITSPTTEDTATYFCCKGDPSSDTGTTLWGQGTLVTVSS VL: AAVLTQTPSSASEPVGGTVTIKCQSSPSVYSNNWLAWFQQKPGQRPKLLIYAAAKLASGVPSRFRGSGSGTQFTLTISDVQSDDAATYYCAGGFNSDSDTTFGGGTEVVVK	456 RFU	1.65 abs. corr.	1.83 abs. corr.	1.36 abs. corr.
P018.S.11.A.G04 (antibody, V domains shown, V regions on human Ig constant parts; also called AB134_44) VH: QSVEESGGRLVTPGTPLTLTCTASGFDLSSYYMSWVRQAPGKGLEWIGIIYTDSSASYASWAKGRFTISRTSTTVDLKMTSPTTEDTATYFCARGLVVSTDNYNLWGPGTLVTVSS VL: AAVLTQTPSPVSVAVGGTVTINCQASQSIYNNNYLAWFQQKPGQPPKLLIYYTSTLASGVPSRFKGSGSGTQFTLTINGVQSDDAATYYCLGDVGGGMRVFGGGTEVVVK	482 RFU	2.13 abs. corr.	1.75 abs. corr.	0.014 abs. corr.
P018.S.12.A.C04 (antibody, V domains shown, V regions on human Ig constant parts; also called AB134_64) VH: QSLEESGGRLVTPGGSLTLTCTVSGIDLSRWTMSWVRQAPGKGLEWIGLIYASDDTVYASWAKGRFTISKTSTTVDLKITSPTTEDTATYFCVRVYGSTSGYYDLWGQGTLVTVSS VL: DVVMTQTPASVSEPVGGTVTIKCQASQSISNWLAWYQQKPGQPPKLLIYYASTLASGVPSRFKGSGSGTQFTLTISDLESADAATYYCQNFGDGNSIGHAFGGGTEVVVK	509 RFU	2.04 abs. corr.	1.83 abs. corr.	0.215 abs. corr.
P018.S.12.A.E06 (antibody, V domains shown, V regions on human Ig constant parts; also called AB134_77) VH: QSVEESGGRLVTPGTPLTLTCTVSGFSLSNYHMCWVRRAPGKGLEWIGSITTADETTHYANWAKGRFTISETSTTVDLRITSPTTEDTAIYFCGRTIRYDDYAVDLWGPGTLVTVSS VL: DLVMTQTPASMSEPVGGTVTIKCQASESVGGYLAWYQQKAGQRPKLLIYAAGNLASGVPSRFKGSGSGTEYTLTISDLESADAATYYCQCTYFDSSYVGFGGGTEVVVR	493 RFU	2.3 abs. corr.	1.87 abs. corr.	0.054 abs. corr.
P018.S.12.A.D04 (antibody, V domains shown, V regions on human Ig constant parts; also called AB134_69) VH: QSVEESGGRLVTPGTPLTLTCTVSGIDLSSYAMGWVRQAPGKGLEYIGIISYDGSTYYASWAKGRFTISKTSTTVDLKITSPTTEDTATYFCARVDYGDYNFALWGQGTLVTVSS VL: DVVMTQTPASVSEVVGGTVTIKCQASESISNYLAWYQQKPGQPPKLLIYAASNLASGVPSRFSGSGSGTQFTLTISDLESADAATYYCQCTYYVSSYFAFSGGTEVVVK	488 RFU	2.23 abs. corr.	1.86 abs. corr.	0.139 abs. corr.
P018.S.12.A.H01 (antibody, V domains shown, V regions on human Ig constant parts; also called AB134_88) VH: QSVEESGGRLVTPGTPLTLTCTVSGFSLSSYAMSWVRQAPGKGLEWIGDINSYATTYYASWAKGRFTISKTSTTVDLKLTSPTTEDTATYFCAREAGYADLWGQGTLVTVSS VL: AYDMTQTPASVEVAVGGTVTIKCQASQSISRYLSWYQQEPGQRPKLLIYEASTLASGVSSRFKGSGSGTQFTLTISGVESADAATYYCQQDYDSTDVGNTFGGGTEVVVK	523 RFU	1.89 abs. corr.	1.83 abs. corr.	0.43 abs. corr.
P018.S.11.A.E04 (antibody, V domains shown, V regions on human Ig constant parts; also called AB134_35) VH: QSVEESGGRLVTPGTPLTLTCTVSGFSLNDYAMSWVRQAPGKGLEWIGSIYTSGTPYYATWAKGRFTISKTSTTVDLKITSPTTEDTATYFCARQSGIDNYWLFTLWGQGTLVCVSS VL: AYDMTQTPASVEVGVGGTVTIKCQASESIASGLAWYQQKPGQRPKLLIYSASSLASGVSSRFKGSGSGTQFTLTISDLESADAANYYCQQGYTSTNLHNVFGGGTEVVVK	416 RFU	1.31 abs. corr.	1.83 abs. corr.	-0.194 abs. corr.
P018.S.12.A.H04 (antibody, V domains shown, V regions on human Ig constant parts; also called AB134_90) VH: QSVEESGGRLVTPGTPLTLTCTASGFSLSDYYMSWVRQAPGKGLEWIGFMNSGGNAYYASWASGRFTISKTSTTVDLKITSPTTEDTATYFCVRDLSRFSLWGRGTLVIVSS VL: AAVLTQTPSPVSAAVGGTVTINCQASPSVYSDYLSWFQQKPGQAPKLLIYWASTLTSGVPSRFSGSGSGTQFTLTISDVQSDDAATYYCAGGYSGNSDVWAFGGGTEVVVK	295 RFU	1.98 abs. corr.	1.89 abs. corr.	-0.121 abs. corr.
P018.S.02.A.F03 (antibody, V domains shown, V regions on human Ig constant parts; also called AB134_2) VH: QSVEESGGRLVTPGTPLTLTCTASGFSLSRYYMSWVRQAPGKGLEWIGFINTAGSAYYASWAKGRFTISRTSTTVDLKMTSLTTEDTATYFCARDLSRFSLWGRGTLVIVSS VL: AAVLTQTPSPVSAAVGGTVTINCQASPSVYSDYLSWFQKKPGQPPKLLIYWASTLASGVPSRFSGSGSGTQFTLTISDLESDDVATYYCAGGYSGNSDNWAFGGGTDVVVK	140 RFU	2.85 abs. corr.	1.73 abs. corr.	0.09 abs. corr.
P018.S.12.A.G02 (antibody, V domains shown, V regions on human Ig constant parts; also called AB134_84) VH: QSLEESGGRLVTPGTPLTLTCTASGFSLNMFYMIWVRQAPGKGLEWIGMIDSMGSAWYASWAKGRFTISKTSTAVALKITSPTTEDTATYFCARAINGDGAGDLWGQGTLVTVSS VL: DVVMTQTPASVSAAVGGTVTINCRASEKIDSFLAWYQQKPGQPPKLLIYGASELAPGVPSRFSGSGSGTDYTLTISALESADAATYYCQSTADGSDYVGTFGGGTEVVVK	530 RFU	2.33 abs. corr.	1.81 abs. corr.	0.212 abs. corr.
P018.S.12.A.D02 (antibody, V domains shown, V regions on human Ig constant parts; also called AB134_67) VH: QSVEESGGRLVTPGTPLTLTCTVSGFSLRHYAMSWVRQAPGKGLEWIGVITTTANTYYASWAKGRFTVSKASSTTVDLKIMSPTIEDTATYFCARAMGLYDSYVDVDDTHDAFDPWGPGTLVTVSS VL: AQVLTQTASPVSAAVGGTVTINCQSSQSVYNSHVLSWYQQKPGQPPKLLIYDASNLASGVPSRFSASGSGTQFTLTISGVQSDDAATYYCLGGYDDDADNIFAFGGGTEVVVA	472 RFU	2.64 abs. corr.	1.77 abs. corr.	0.333 abs. corr.
P018.S.11.A.H02 (antibody, V domains shown, V regions on human Ig constant parts; also called AB134_46) VH: QSVEESGGRLVTPGTPLTLTCTVSGFSLSNYAMSWVRQAPGKGLEWIGIISPSGNTYYANWAKGRFTISKTSTTVDLKITSPTTEDTATYFCAREGALYDDYGDYVDAFDPWGPGTLVTVSS VL: AAVLTQTPSPVSAAVGGTVSISCQSSESVYNNNWLSWYQQKPGQPPKLLIYRASTLASGVPSRFKGSGSGTQFTLTISDVQSDDAATYYCAGGYSSSSDINAFGGGTEVVVK	515 RFU	2.8 abs. corr.	1.8 abs. corr.	0.783 abs. corr.
P018.S.12.A.G01 (antibody, V domains shown, V regions on human Ig constant parts; also called AB134_83) VH: QSVEESGGRLVTPGTPLTLTCTVSGFSLSSSTMGWFRQAPGKGLEWIGVIYTDGDTYYARWAKGRFTISKTSTTINLSITSPTSEDTATYFCARRANGYDDFDPWGPGTLVTVSS VL: AYDMTQTPASVEVAVGGTVTIKCQASESISSYLNWYQQKPGQPPKLLIYYESYLASGVPSRFKGSGSGTEYTLTISGVESADAATYYCQQGFSYINVDNTFGGGTEVVVK	526 RFU	1.56 abs. corr.	1.86 abs. corr.	1.33 abs. corr.
